Each block holds one substance with its values, some of them ahead of it.
Columns and labels:
[1] = molecular target: myosin from chicken gizzard, dephosphorylated form (chicken) (UniProt P10587); assay: co-sedimentation with M21 in excess (10-50 µM M21, 1 µM myosin), Coomassie-stained gel
[2] = molecular target: myosin from chicken gizzard, dephosphorylated form (chicken) (UniProt P10587); assay: co-sedimentation, 30 nM PP1M with 1 µM myosin
[3] = molecular target: PP1GL, glycogen-associated form of PP1 in rat hepatic glycogen-protein particles (rat); assay: cell-based or functional assay

Sequence of myosin from chicken gizzard, dephosphorylated form (chicken) (P10587 2-1979, chain 1 of 3): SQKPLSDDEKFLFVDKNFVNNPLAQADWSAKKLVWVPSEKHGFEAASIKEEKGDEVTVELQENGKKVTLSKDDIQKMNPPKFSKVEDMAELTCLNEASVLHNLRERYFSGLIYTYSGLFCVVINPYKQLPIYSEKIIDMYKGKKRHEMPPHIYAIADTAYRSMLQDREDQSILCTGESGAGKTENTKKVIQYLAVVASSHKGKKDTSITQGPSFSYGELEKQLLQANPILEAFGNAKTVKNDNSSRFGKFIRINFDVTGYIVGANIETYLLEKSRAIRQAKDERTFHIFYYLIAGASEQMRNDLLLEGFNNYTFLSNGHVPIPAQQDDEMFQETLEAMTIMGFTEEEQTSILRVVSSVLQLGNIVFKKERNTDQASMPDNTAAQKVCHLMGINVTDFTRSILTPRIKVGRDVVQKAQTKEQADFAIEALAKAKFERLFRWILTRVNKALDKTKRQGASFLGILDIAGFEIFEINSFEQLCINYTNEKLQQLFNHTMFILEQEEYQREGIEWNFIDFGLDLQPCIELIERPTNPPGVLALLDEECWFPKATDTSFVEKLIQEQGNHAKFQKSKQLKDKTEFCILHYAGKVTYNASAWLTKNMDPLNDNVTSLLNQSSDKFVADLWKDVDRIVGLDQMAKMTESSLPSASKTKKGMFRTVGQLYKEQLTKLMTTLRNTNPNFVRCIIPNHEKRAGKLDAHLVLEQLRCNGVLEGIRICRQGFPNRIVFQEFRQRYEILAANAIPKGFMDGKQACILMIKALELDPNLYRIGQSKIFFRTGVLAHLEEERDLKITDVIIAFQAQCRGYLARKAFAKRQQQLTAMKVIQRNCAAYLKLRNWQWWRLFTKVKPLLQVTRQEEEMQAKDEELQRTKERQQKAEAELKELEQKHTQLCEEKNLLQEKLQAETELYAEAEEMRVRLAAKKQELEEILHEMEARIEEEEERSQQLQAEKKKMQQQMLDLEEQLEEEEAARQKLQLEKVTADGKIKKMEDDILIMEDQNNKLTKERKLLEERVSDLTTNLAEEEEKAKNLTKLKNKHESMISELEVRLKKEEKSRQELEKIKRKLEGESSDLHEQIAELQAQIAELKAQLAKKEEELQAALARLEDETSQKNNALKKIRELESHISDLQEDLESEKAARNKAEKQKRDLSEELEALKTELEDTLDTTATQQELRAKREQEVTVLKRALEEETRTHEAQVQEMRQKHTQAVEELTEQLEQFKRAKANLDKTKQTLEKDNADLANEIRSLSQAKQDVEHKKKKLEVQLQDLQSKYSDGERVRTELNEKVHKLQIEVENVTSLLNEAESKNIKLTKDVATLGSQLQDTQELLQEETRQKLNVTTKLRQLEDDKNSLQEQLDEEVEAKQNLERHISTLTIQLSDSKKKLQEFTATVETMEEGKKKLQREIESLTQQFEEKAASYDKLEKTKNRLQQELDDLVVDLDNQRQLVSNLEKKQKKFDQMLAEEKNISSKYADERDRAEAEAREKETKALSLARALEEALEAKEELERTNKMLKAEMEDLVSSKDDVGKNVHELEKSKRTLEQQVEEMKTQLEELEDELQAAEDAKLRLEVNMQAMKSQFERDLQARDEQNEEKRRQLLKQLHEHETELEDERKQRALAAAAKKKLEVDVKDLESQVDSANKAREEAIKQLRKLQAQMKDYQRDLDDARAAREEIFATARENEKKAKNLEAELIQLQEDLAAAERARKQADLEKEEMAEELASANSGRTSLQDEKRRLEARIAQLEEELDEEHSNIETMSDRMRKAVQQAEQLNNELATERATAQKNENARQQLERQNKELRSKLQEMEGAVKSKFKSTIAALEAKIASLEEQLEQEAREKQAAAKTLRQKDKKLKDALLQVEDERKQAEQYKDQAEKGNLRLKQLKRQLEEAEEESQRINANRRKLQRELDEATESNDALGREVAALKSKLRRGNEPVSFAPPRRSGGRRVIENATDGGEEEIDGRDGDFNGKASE
Sequence of myosin from chicken gizzard, dephosphorylated form (chicken) (P02612 2-172, chain 2 of 3, further chain): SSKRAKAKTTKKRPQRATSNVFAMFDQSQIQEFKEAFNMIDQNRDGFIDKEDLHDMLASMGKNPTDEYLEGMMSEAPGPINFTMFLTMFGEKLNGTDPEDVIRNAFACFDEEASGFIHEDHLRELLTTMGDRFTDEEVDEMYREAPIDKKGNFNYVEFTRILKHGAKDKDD
Sequence of myosin from chicken gizzard, dephosphorylated form (chicken) (P02607 2-151, chain 3 of 3, further chain): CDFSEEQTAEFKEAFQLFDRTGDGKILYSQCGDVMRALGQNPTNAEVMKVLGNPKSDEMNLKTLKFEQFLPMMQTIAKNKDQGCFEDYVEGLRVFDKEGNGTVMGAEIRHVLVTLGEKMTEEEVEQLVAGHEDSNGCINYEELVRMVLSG
Sequence of PP1M, myosin-associated form of PP1 from chicken gizzard (P62207 2-327): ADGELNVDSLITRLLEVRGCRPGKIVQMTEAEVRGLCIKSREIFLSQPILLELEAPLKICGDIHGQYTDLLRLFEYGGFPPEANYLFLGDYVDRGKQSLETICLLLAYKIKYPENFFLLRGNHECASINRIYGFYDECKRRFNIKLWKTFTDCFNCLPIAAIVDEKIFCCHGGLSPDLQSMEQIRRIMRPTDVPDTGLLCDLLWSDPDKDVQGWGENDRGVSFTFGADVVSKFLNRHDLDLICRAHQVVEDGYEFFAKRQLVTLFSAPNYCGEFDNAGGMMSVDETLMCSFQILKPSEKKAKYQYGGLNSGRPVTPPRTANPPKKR
Sequence of PP1M, myosin-associated form of PP1 from chicken gizzard (chain): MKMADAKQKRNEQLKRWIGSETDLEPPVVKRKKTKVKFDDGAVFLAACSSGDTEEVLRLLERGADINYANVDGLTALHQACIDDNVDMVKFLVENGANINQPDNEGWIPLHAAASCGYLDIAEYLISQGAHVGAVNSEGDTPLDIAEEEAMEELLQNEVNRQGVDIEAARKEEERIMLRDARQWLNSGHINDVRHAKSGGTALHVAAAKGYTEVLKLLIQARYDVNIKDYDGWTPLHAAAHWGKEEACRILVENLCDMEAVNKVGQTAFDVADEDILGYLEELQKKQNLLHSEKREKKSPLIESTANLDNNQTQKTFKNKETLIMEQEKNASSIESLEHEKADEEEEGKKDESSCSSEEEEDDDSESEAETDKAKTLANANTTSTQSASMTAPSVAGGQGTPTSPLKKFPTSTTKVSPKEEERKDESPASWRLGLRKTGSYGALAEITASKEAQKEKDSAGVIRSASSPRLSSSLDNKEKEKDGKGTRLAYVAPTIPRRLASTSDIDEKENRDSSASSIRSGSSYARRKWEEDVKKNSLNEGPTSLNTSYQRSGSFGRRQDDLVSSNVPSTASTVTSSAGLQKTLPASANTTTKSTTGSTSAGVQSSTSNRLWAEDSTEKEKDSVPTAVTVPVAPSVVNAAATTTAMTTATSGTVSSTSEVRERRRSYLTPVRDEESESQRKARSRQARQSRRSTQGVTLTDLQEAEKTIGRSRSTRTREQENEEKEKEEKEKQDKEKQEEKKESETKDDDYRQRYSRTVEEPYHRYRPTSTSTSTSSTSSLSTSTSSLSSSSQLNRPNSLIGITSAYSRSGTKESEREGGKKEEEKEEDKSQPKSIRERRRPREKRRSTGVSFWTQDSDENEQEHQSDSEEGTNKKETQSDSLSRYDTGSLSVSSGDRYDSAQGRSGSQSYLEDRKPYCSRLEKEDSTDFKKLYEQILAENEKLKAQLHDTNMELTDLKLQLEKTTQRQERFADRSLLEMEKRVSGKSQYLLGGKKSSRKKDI

- moles of M21 subunit bound to each myosin dimer (mol/mol myosin dimer) [1]: > 20
Substance: M21 subunit of chicken gizzard PP1M, full length (M1-K186)

- percent of myosin P-light chain phosphatase recovered in the myosin pellet [2]: 85%
Substance: PP1M, myosin-associated form of PP1 from chicken gizzard (from UniProt P62207 2-327) (enzyme)

- effectiveness of disruption of the PP1-GL complex relative to wild type GM[63-75] [3]: 100 fold
Substance: GM[G63-N75] variant with Val 66 changed to Ala (peptide)
